Reference: patent US6967092 (dated 2005)

Molecular target: T1, human G-CSF receptor transfected in BaF3 cells (human, UniProt Q99062 25-836)
T1 construct: whole, on cells; also called hG-CSF receptor; BaF3/hG-CSF
Test: competition with an agonist-specific radioligand, BaF3 cells transfected with the G-CSF receptor

B1: G-CSF (ligand)
chain: not shown
  IC50: 0.69 nM
